Columns and labels:
[1] = biological target: the molecule itself; test: SEC-UV (self-association)
[2] = biological target: the molecule itself; test: SEC-MALS (self-association)

Protein	binding result [1]	binding result [2]
3mCDTa1 (CDTa minus the signal peptide with R302A, E385A and E387D) (enzyme) MVCNTTYKAPIERPEDFLKDKEKAKEWERKEAERIEQKLERSEKEALESYKKDSVEISKYSQTRNYFYDYQIEANSREKEYKELRNAISKNKIDKPMYVYYFESPEKFAFNKVIRTENQNEISLEKFNEFKETIQNKLFKQDGFKDISLYEPGKGDEKPTPLLMHLKLPRNTGMLPYTNTNNVSTLIEQGYSIKIDKIVRIVIDGKHYIKAEASVVSSLDFKDDVSKGDSWGKANYNDWSNKLTPNELADVNDYMRGGYTAINNYLISNGPVNNPNPELDSKITNIENALKREPIPTNLTVYARSGPQEFGLTLTSPEYDFNKLENIDAFKSKWEGQALSYPNFISTSIGSVNMSAFAKRKIVLRITIPKGSPGAYLSAIPGYAGAYDVLLNHGSKFKINKIDSYKDGTITKLIVDATLIP	binds	
4mCDTa8 (CDTa minus the signal peptide with S345F, E385Q, E387Q and C2A) (enzyme) MVANTTYKAPIERPEDFLKDKEKAKEWERKEAERIEQKLERSEKEALESYKKDSVEISKYSQTRNYFYDYQIEANSREKEYKELRNAISKNKIDKPMYVYYFESPEKFAFNKVIRTENQNEISLEKFNEFKETIQNKLFKQDGFKDISLYEPGKGDEKPTPLLMHLKLPRNTGMLPYTNTNNVSTLIEQGYSIKIDKIVRIVIDGKHYIKAEASVVSSLDFKDDVSKGDSWGKANYNDWSNKLTPNELADVNDYMRGGYTAINNYLISNGPVNNPNPELDSKITNIENALKREPIPTNLTVYRRSGPQEFGLTLTSPEYDFNKLENIDAFKSKWEGQALSYPNFIFTSIGSVNMSAFAKRKIVLRITIPKGSPGAYLSAIPGYAGQYQVLLNHGSKFKINKIDSYKDGTITKLIVDATLIP		no binding

From patent US20150044250A1 (INTERVET, published 2015)
